Results reported in the supplement of paper PMC10126150.
± gives the standard deviation of the averaged measurements.

Tested on: ATP
Experiment: switch fluorescence ratio, 500 uM ATP over buffer (Cy3 cluster intensity, sum of 5 cycles each) (fold (ratio)); higher = stronger signal-on switching upon ATP binding; sequences stand for … in TCGTCGGCAGCGTCAGATGTGTATAAGAGACAGTTTTTTTTTTTTTTTTTTTTTTTTT…TC
Conditions: aptamer strand: ATP DNA aptamer (quencher-CACCTGGGGGAGTATTGCGGAGGAAGG + anchor), 100 nM annealed; ATP concentration: 500 uM
Procedure, shortened: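 After annealing to 100 nM quencher-labelled ATP aptamer, Cy3-labelled switching-strand clusters on a modified Illumina MiSeq flow-cell were imaged in selection buffer. A second image followed after 15 min with 500 uM ATP at 22 °C, and five such buffer/ATP cycles were done, each separated by NaOH stripping and re-annealing. The fluorescence ratio, averaged per switch-domain sequence, is summed target-cycle over summed buffer-cycle Cy3 intensity per cluster, with clusters outside 100-1000 RFU excluded.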
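Also: ATP exposure 15 min at 22 °C before imaging.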

Sequence	switch fluorescence ratio
TTTGCCGATG	0.985 ± 0.013
AAGTCGTTCG	0.989 ± 0.016
AGGTAGGTGG	1.01 ± 0.019
ACTGGGTGGC	1.01 ± 0.029
TAGTAGACTC	1.46 ± 0.75
AAATCCCGTA	1.01 ± 0.052
TATAAGACTA	1.02 ± 0.021
TTGTGGGGTC	1 ± 0.036
TAAATGTCTG	0.995 ± 0.015
GCGAGGCCCG	0.9944 ± 0.0017
TATCGGTCTA	1.006 ± 0.005
AAAGGAGGAA	0.989 ± 0.019
TGGGGATAGC	1.02 ± 0.053
TTCCAGTTT	1 ± 0.04
TACGGGGCCT	1.04 ± 0.064
CTGGGAGAGC	1.05 ± 0.053
AGAAAAGAA	1 ± 0.036
ACCATTGTGA	0.998 ± 0.014
CATAACGTAC	1.97 ± 0.21
TCATTTAGAG	0.977 ± 0.019
TAGAGAAATA	1.01 ± 0.064
TATATGGGTT	0.9849 ± 0.0062

Sequence	switch fluorescence ratio
ATTTTGGAGG	0.9908 ± 0.0057
TCAGTTATTT	1.04 ± 0.055
GTTATAAGGG	0.975 ± 0.03
AGGTTGTGCT	0.9644 ± 0.009
TTGGTGTCAG	1.02 ± 0.018
AGGCTTTGGG	0.978 ± 0.0099
GGTGTGGAGG	1.021 ± 0.0047
GAATAGGGGA	1.02 ± 0.022
GGATTACGAC	1.12 ± 0.15
TAAAAATACA	1.1 ± 0.13
GGCTGGGTTA	1 ± 0.026
TCGTAAGGAA	1.01 ± 0.02
TTTTTTAAAG	0.99843 ± 0.00078
ATGGTGAATT	1.016 ± 0.0044
ATGCCCAGCT	1.0068 ± 0.00025
TCTACTAT	1.06 ± 0.031
GCTATTTGTA	1.01 ± 0.023
ATGTTTTTAG	0.991 ± 0.018
GCTGGGGCAG	1.016 ± 0.01
TTTGTTCTTT	1.02 ± 0.081
AATGTTATAG	1.008 ± 0.00014
CAAATATACT	1.14 ± 0.13

Sequence	switch fluorescence ratio
GGGTTAGGGT	0.991 ± 0.049
ATATGCCCTA	0.9674 ± 0.0077
CAATGAGGG	0.997 ± 0.022
CCTCAGGGGC	2.39 ± 0.57
GACCATGGCA	1.01 ± 0.045
AATAAGGTAT	0.965 ± 0.014
TTAGATCTGC	1.02 ± 0.083
ATTCATTGC	1.038 ± 0.0048
GGGGAAATTG	0.983 ± 0.019
AGGTTGACTG	0.988 ± 0.1
AAGGGGGG	0.994 ± 0.062
GCCGGCTTTC	1.01 ± 0.048
GTAGGACATC	1.01 ± 0.023
CAGTCATGCC	0.971 ± 0.058
GGGGTACATG	1.022 ± 0.0055
TGTGATTGTG	0.967 ± 0.015
ATTTTGGAGA	1.02 ± 0.026
CCGTGTCATT	1.013 ± 0.0023
GCCTAAGTTT	0.986 ± 0.024
GGGGCAGTGT	0.991 ± 0.042
GCTGGTGCGA	1.005 ± 0.0099
TAATTGT	0.976 ± 0.03

Sequence	switch fluorescence ratio
CATTGAATAT	0.996 ± 0.043
TACTGGGTTC	0.987 ± 0.047
AAGGTTAAGG	0.993 ± 0.025
GTTTTTGTGA	0.9693 ± 0.0079
AATAGGGTG	1.08 ± 0.07
CTTGGAGTTG	1.02 ± 0.07
ATGGGAGGAT	1.018 ± 0.0027
GGGTTGAGGA	1.01 ± 0.05
AACATTGGTC	1.01 ± 0.017
AGCATAATAT	1.05 ± 0.012
GAGCTTACGG	1.064 ± 0.01
GGGGGCCGCC	0.988 ± 0.01
GCATTGGGGC	0.9893 ± 0.0098
TGTCTACTCT	1 ± 0.022
GTATGGGATG	0.993 ± 0.015
GTTTGGGGGA	0.9909 ± 0.0052
ATGGCAGCAT	1.012 ± 0.0057
GGGTCTTGGC	1.0357 ± 0.00074
TCGTCTGTGG	0.974 ± 0.029
